Experimental data taken from the nanobody polyreactivity screen of Harvey et al. (2022).

Experiment: yeast display, Sf9 membrane polyspecificity reagent, FACS + sequencing; frameworks hold sequencing errors
Procedure, shortened: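 Galactose induction of a Saccharomyces cerevisiae BJ5465 synthetic nanobody display library ran 36–48 hours. The cells were then stained for 1 hour at 4 °C with 10% biotinylated, detergent-solubilized Sf9 membrane reagent, pulled down on streptavidin microbeads and FACS-sorted into low and high (top ~1%) gates on expression and reagent-binding fluorescence. Labels for polyreactivity follow the gate of origin.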

Sequence | polyreactivity (PSR sort gate)
QVQHVESGGGLVQAGGSLRLSCAASGRIFVAYTMGWYRQAPGKERELVAGISRSGGSTYYADSVKGRFTISRDNAKNTVYLQMNNLKPEDTAVYYCAVGNWRLFPYGYWGQGTQVTVSS | high polyreactivity
QVQLVESGGGLVQAGGSHRLSCAASGSTFTWYPMGWYRQEPGKERELVADISYGGGSTYYADSVKGRFTISRDNAKNTVYLQMNSLKPEDTAVYYCAAESIPYYRYDYWGQGTQVTVSS | low polyreactivity
QVQLVESGGGLVQAGGSLRLSCAASGSIFGGYAMGWYRQAPVKERELVARIRVSGGRTYYSDSVKGRFTISRDNAKNTVYLQRNSLKPEDTAVYYCNALLAGRRVARGYDSWGQGTQVTVSS | high polyreactivity
QVQLVDSGGVLVQAGGSLRLICAASGNTFAYYTLGWYRQAPGKEMELVAAIDYSGGSTYYADSVKGRFTISRDNAKNTVYLQMNSLKPEDTAVYYCASDYRWHFSESLGWFYEYGYWGQGTQVTVSS | low polyreactivity
QVQLVESGGGLVQAGGSLRLSCAASGSIFTTYAMGWYRQAPGKERELVAAISSTSGSTYYADSVKGRFTISGDNAKNTVYLQMTSLKPEDTAVYYCAARGGYWGQGTQVTVSS | low polyreactivity
QVQLVESGGGLVQAGGSLRLSCASSGRTFLRYTMGWYRQAPGKERELVAAISYRGGTTYYADSVKGRFTISRDNGKNTVYLEMNSMKADETGVYYCAARNVGRTGSDFWGQGTQVTVSS | low polyreactivity
QVQLVESGGGLVQAGGSLRLSCAASGSTFGNNTMGWYRQAPGKEREFVAAITESGGGTYADSVKGRFTISRDNAKNTVYLQMNSLKPEDTAVYYCAAVWYIWPFAFYYWGQGTQVTVSS | high polyreactivity
QVQLEESGGGLVHAGGSLRLICAASGSTFSTYAMRWYRQAPGKERELVARITRGGSTNYADSVKGRFTISRDNAMNTVYLQMNCLKPDDTAVYYFSAGIRSGRKYDYWGQGTQVTVSS | low polyreactivity
QVNLVESGGVSVQAGGSLRLSCAASGLIFDKYAMGWYRQAPGKERELVAAITRSSGTTYYADSVKGRFTISRDNAKNTVYLLLISVTPEDTAVYYCPAPFIWGYWGVGYYYWGQGTHVTVSS | low polyreactivity
QVQLVESGGGLVRAGGSLRLSCAASGSTFGENAMGWYRQAPGKERELVAAISDSGGDTYYADSVKGRFTISRDNAKNTVYLQMNSLKPEDTAVYYCAADRYGYWYAYYSWGQGTQVTVSS | low polyreactivity
QVQLVESGGGLVQAGGSLRLSCAASGIIFVQYAMGWYRQAPGKERELVAGITRRGGSTYYADSVKGRFTISRDNAKNTVYLQMNSLKTEDTAVFYCAATRPGDVLYRNEYWGQGTQVTVSS | high polyreactivity
QVQLVESGGGLVQAGGSLRLSCAASGRIFYYNAMGWYRQAHGKERELVAAISFSDGSTYYADSVKGRFTISRDNAKNTVYLQMNSLKPEDTAVYYCAADIGYDYDYWGQGTQVTVSS | low polyreactivity
QVQLVESGGGLVQAGGSLRLSCAASGFTFYKYAMGWYRQAPGKERELVATISWSGARTYYADSVKGRFTISRDNAKNTVYLQMNSLKPEDTAVYYCNARRAYRWKPYTGSAGMDYWGQGTQVTVSS | high polyreactivity
QVQLVESGAGLVQAGGTLRLSCAASGFTCRYYAMGWSRQAPGKERELVASISWSGDSTYYADSVKGRFTISRDNAKNTGYLQMNSLKPEETAFYYCARQTGFPRSYIYRMYYWGQGTQVTVSS | high polyreactivity
QVQLVESGGCLVQAGGSLRLSCAASGSTFSRYAMGWYRQAPGKERELVAAISWGGNTYYADSVKGRFTISRDNAKNTVYLQMNSLKPEDTAGYYCNADYSSRGANYDYWGQGTQVTVSS | high polyreactivity
QVQLVESGGGLVQAGGSLRLSCAASGRTFVYNAMGWYRQAPGKERELVAAIRFSGGRTYYADSVKGRFTISRDNAKNTVYLQMNSLKPEDTAVYYCAVTGELTLYTWRSFEYYYWGQGTQVTVSS | low polyreactivity
QVQLVESGGGLVQAGGSLRLSCAASGSIFVLYAMGWYRQAPGKERELVAAINYDGASTYYADSVKGRFTISRDNAKNTVYLQMNSLKREDTAVYYCAKRFGPAYFRLYDYWGQGTQVTVSS | low polyreactivity
QVQLVESGGGLVQAGGSLRLSCAASGLTFSYYAMGWYRQAPGKERELVAAISWSGGITYYADSVKGRFKISRDNAKNTVYLQMNSLKPEDTAVYYCAADGYPTLFDYWGQGTQVTVAS | high polyreactivity
QVQLVESGGGLVQAGGSLRLSCAASGSTFYWNVMGWYRQAPGKERELVAAINRSDGSTYYADSVKGRFTISRDNAKNTVYLQMNSLKPEDTAVYFCNAVTKHPQSVPYAYGYWGQGTQVTVSS | high polyreactivity
QVQLVESGVGLVQAAGSLRLSCAASGRIFKYYAMGWYRQAPGKERELVATISRGSRTNYADSVKGRFTISRDNAKNTVYLQMNSLKPEDTAVYYCAAQRLSASRPYGYWGQGTQVTVSS | high polyreactivity
QVQLVESGGGLVQAGGSLRLSCAASGSTFNGNDMGWYRQAPGKERELVATISDGGRTYYADSVKGRFTISRDNAKNTVYLQRNSLKPEDTAVYYCAAPVYVPRAWFYYWGQGTQVTVSS | low polyreactivity
QVQLVESGGGLVQAGGSLRLSCAASGSINCSNAMGLYRKAPRKERDLVAAITESGGDTYYADSVKGRFTISRDNAKNTVYLLINSMKPEDTAVYYCAARYFGVIVDVSLFSEYGSWGQGTQVTVSS | low polyreactivity

Sequence | polyreactivity (PSR sort gate)
QVQLVESGGGLVQAGGSLRLSCAASGRTFQYYAMGWYRQAPGKERELVAAINQGGGRTYYADSVKGRFTISRDTAKNTVYLQMNSLKPEDTAVYYCAADGLSKFDYWGQGTQVTVSS | low polyreactivity
QVQLVESGGGLVQAGGSLRLSCAASGRTFSYYAMGWYRQAPGKERELVARITYRGGRTYYADSVKGRFTISRDNAKNTVYLQMNSLKPEDTAVYYCATTSWRYGYDYWGQGSQVTVSS | high polyreactivity
QVQLVESGGGLVQAGGSLRLSCGASGITFVYYTMGWYRQAPGKERELVAAISKNGGSTYYADSVKGRFTISRDNAKNTVYLQMNSLKPEYTAFSYCAAEEGYRWVRYNYWGQGTQVTVSS | high polyreactivity
QVQLEESGGGLVQAGGSLRLSCAASGLIFSAYAMGWYRQAPGKERELVAAIRTGGSTYYADSVKGRFTFSRDNAKNTVYLQMNSLKPVDTAVYYCAASQKGYFYYNVYYWGQGTQVTVSS | high polyreactivity
QVQLVESGGGLVQAGGSLRLRCDASGRIFISYTMGWSRPPPGKERELVAGIDSSGTSTYYADSVKGRFTISRDNAKNTVYLLMNSLKPEDNADYYCNVDGYWKDTSTEMVYWGQGTQVTVSS | low polyreactivity
QVQLVESGGGLVQAGGSLRLSCAASGSIFNRYAMGWYRQAPGKERELVAAIRSGDNTNYADSVKGRFTISRDNAKNTVYLQMNSLKPEDTAVYYCAIRTYYRSRTVGWGKMDYWGQGTQVTVSS | high polyreactivity
QVQLVESGGGLVQAGGSLRLSCAASGNTIGVNAMGWYRQAPGKERELVAVITSGGGSTYYADSVKGRFTISRDNAKNTVYLQMNSLKPEDTAVYYCARRSYRLYTLGNGYWGQGTQVTVSS | low polyreactivity
QVQLVESGGGLVQAGGSLRLSCAASGFIFAYYVMGWYRQAPGKERELVAAITSRGGRTYYADSVKGRFTISRDNAKNTVYLQMNSLKPEDTAVYYCAAYRQLVNLREDYWGQGTQVTVSS | high polyreactivity
QVQLVESGGGLVQAGGSLRLSCAASGRIFSGYAMGWYIQAHGKERELVAAISSTGGTYYADSVKGRFTISRDNAKNTVYLQMNSLKPEDTAVYYFAARYRTLTKYYWGQGTQVTVSS | low polyreactivity
QVQLVESGGGLVQAGGSLRVSCAASGSIFGYYAMGWSRQAPGKERELVAGINWSGGSTYADSVKGRFTISRDNAKNTVYLKMNSLKPEDTAVYYCYLRYRKYSSAKYDYWGQGTQVTVSS | high polyreactivity
QVQLVESGGGLVQAGGSLRLSCAASGFIFGYNAMGWYRQAPGKERELVAAINWSGGRTYYADSVKGRFTISRDNPKNTVYLQMNSLKPEDTAVSYCNADGSRRYNYWGQGTQVTVSS | low polyreactivity
QVQLVESGGGLVQAGGSLRLSCAASGSIFGWYVMGWYRQAPGKERELVAAISSGGSTNYADSVKGRFTISRDNAKNTVYLQMNSLKPEDTAVYYCAKRFRRTPYRNTYKPYDRYYWGQGTQVTVSS | high polyreactivity
QDQLVESGGGLVQAGGSLRLSCAASGFIFFGYAMGWYRQAPGKERELVAAITSGGSTYYADSVKGRFTISRDNAKNTVYLQMNSLKPEDTAVYYCAAVLWYGSKRYGYWGQGTQVTVSS | high polyreactivity
QVQLVESGGGLVQAGGSLRLSCAASGFIFPWYTMGWYRQAPGKERELVAVINQSGGSTYYADSVKGRFTISRDNAKNPVYLQMNSLKPEDTAVDYCAAKSYYSWGQGTQVTVSS | high polyreactivity
QVQLVESGGGLVQAGGSLRLSCAASGFTFSRYAMGWYRQAPGKERELVAAITASGGTTYYADSVKGRFTISRDNAKNTVYLQMNSLKAEDTAVYYCNALYYYLYGYDYWGQGTQVTVSS | high polyreactivity
QVQLVESGGGLVQAGGILRLSFAASGRIFTHYAMAGYRPAPGKERELVAAIRYSGGRTYYADSVKGRFTLSRDNAKNTVYLQMNSRKPEDTAVYYCAAEGFGGSFRSFYTIYDYWGQGTLVTVSS | high polyreactivity
QVQLVESGGGLVQAGGSLRLTSAASGSTFLKYTMGWYRQAPGKERELVAGITYSGGSTSYADSVKGRFTISRDNAKNTVYFQMNSLKPEDTAVYYSAAARNTVYSYRGLFYWGQGTQVTLSS | high polyreactivity
QVQLEESGGGLVQAGGSLRLSCSASGRIFIKYAMGWYRQAPGKEREFVAAISGRGGSTYYADSVKGRFTISRDNAKNTVYLQMNSLKPEDTAVYYWAKRFFSTGTAAGMYYWGQGTQVTVSS | high polyreactivity
QVQLVESGGGLVQAGGSLRLSCAASGFIFGPNAMGWYRQAPGKERELVAAITLSGGSTYYADSVKGRFTISRDNAKNTVYLQMNSLKPEDTAVYYCATTYYHNYLLYGYWGQGTQVTVSS | low polyreactivity
QVQLVESGGGLVQAGGSLRLSCAASGRTFKYYAMGWYRQAPGKERELVASISASGGSTRYADSVKGRFTISRDNAKNTVYLQMNSLKPEDTAVYYCAADRGYKYYYWGLGTQVTVSS | high polyreactivity
QVQLVESWGGLVQAGGSLRLSCAASGIIFQNYDMGWYRQARGKERELVAAITGSGGSTYYADSVKGRFTISRDNAKNTVYLQMNSLKPEDTAVYYCNAVWEYYGKSDYWGQGTQVTVSS | low polyreactivity
